Laboratory results from patent publication US20250304643A1 (BAINAN BIOTECH, published 2025).
*1 amine or outer side, *2 acyl side, *3 side chain or, on linkers, in order; H or OH if unused. Where no end group is shown, it is not given here. Side-chain parts run from the residue outwards. [ ]: non-standard residue; d: D form. The star is where a group is joined. γGlu = O=C(O)[C@H](CCC(=O)[*:2])N[*:1]; Palmitoyl = CCCCCCCCCCCCCCCC(=O)*; Aib = CC(C)(N)C(=O)O

B1: Compound no. 11 (peptide)
peptide: HXDGTFISDYKTILDNLAARDFINWLIQTKITK
modifications: Aib at 2; K(γGlu-C16) at 11; C-terminus -OH
B2: Compound no. 6 (peptide)
peptide: Palmitoyl-H[Aib]DGTFISDYSTILD[Aib]LAARDFINWLIQTKITK-OH
SMILES: CCCCCCCCCCCCCCCC(=O)N[C@@H](Cc1c[nH]cn1)C(=O)NC(C)(C)C(=O)N[C@@H](CC(=O)O)C(=O)NCC(=O)N[C@H](C(=O)N[C@@H](Cc1ccccc1)C(=O)N[C@H](C(=O)N[C@@H](CO)C(=O)N[C@@H](CC(=O)O)C(=O)N[C@@H](Cc1ccc(O)cc1)C(=O)N[C@@H](CO)C(=O)N[C@H](C(=O)N[C@H](C(=O)N[C@@H](CC(C)C)C(=O)N[C@@H](CC(=O)O)C(=O)NC(C)(C)C(=O)N[C@@H](CC(C)C)C(=O)N[C@@H](C)C(=O)N[C@@H](C)C(=O)N[C@@H](CCCNC(=N)N)C(=O)N[C@@H](CC(=O)O)C(=O)N[C@@H](Cc1ccccc1)C(=O)N[C@H](C(=O)N[C@@H](CC(N)=O)C(=O)N[C@@H](Cc1c[nH]c2ccccc12)C(=O)N[C@@H](CC(C)C)C(=O)N[C@H](C(=O)N[C@@H](CCC(N)=O)C(=O)N[C@H](C(=O)N[C@@H](CCCCN)C(=O)N[C@H](C(=O)N[C@H](C(=O)N[C@@H](CCCCN)C(=O)O)[C@@H](C)O)[C@@H](C)CC)[C@@H](C)O)[C@@H](C)CC)[C@@H](C)CC)[C@@H](C)CC)[C@@H](C)O)[C@@H](C)CC)[C@@H](C)O
B3: Compound no. 5 (peptide)
peptide: Palmitoyl-H[Aib]DGTFISDYST[Aib]LDNLAARDFINWLIQTKITK-OH
SMILES: CCCCCCCCCCCCCCCC(=O)N[C@@H](Cc1c[nH]cn1)C(=O)NC(C)(C)C(=O)N[C@@H](CC(=O)O)C(=O)NCC(=O)N[C@H](C(=O)N[C@@H](Cc1ccccc1)C(=O)N[C@H](C(=O)N[C@@H](CO)C(=O)N[C@@H](CC(=O)O)C(=O)N[C@@H](Cc1ccc(O)cc1)C(=O)N[C@@H](CO)C(=O)N[C@H](C(=O)NC(C)(C)C(=O)N[C@@H](CC(C)C)C(=O)N[C@@H](CC(=O)O)C(=O)N[C@@H](CC(N)=O)C(=O)N[C@@H](CC(C)C)C(=O)N[C@@H](C)C(=O)N[C@@H](C)C(=O)N[C@@H](CCCNC(=N)N)C(=O)N[C@@H](CC(=O)O)C(=O)N[C@@H](Cc1ccccc1)C(=O)N[C@H](C(=O)N[C@@H](CC(N)=O)C(=O)N[C@@H](Cc1c[nH]c2ccccc12)C(=O)N[C@@H](CC(C)C)C(=O)N[C@H](C(=O)N[C@@H](CCC(N)=O)C(=O)N[C@H](C(=O)N[C@@H](CCCCN)C(=O)N[C@H](C(=O)N[C@H](C(=O)N[C@@H](CCCCN)C(=O)O)[C@@H](C)O)[C@@H](C)CC)[C@@H](C)O)[C@@H](C)CC)[C@@H](C)CC)[C@@H](C)O)[C@@H](C)CC)[C@@H](C)O
B4: Compound no. 8 (peptide)
peptide: Palmitoyl-H[Aib]DGTFISDYSTILDNLAARDFIEWLIQTKIT-OH
SMILES: CCCCCCCCCCCCCCCC(=O)N[C@@H](Cc1c[nH]cn1)C(=O)NC(C)(C)C(=O)N[C@@H](CC(=O)O)C(=O)NCC(=O)N[C@H](C(=O)N[C@@H](Cc1ccccc1)C(=O)N[C@H](C(=O)N[C@@H](CO)C(=O)N[C@@H](CC(=O)O)C(=O)N[C@@H](Cc1ccc(O)cc1)C(=O)N[C@@H](CO)C(=O)N[C@H](C(=O)N[C@H](C(=O)N[C@@H](CC(C)C)C(=O)N[C@@H](CC(=O)O)C(=O)N[C@@H](CC(N)=O)C(=O)N[C@@H](CC(C)C)C(=O)N[C@@H](C)C(=O)N[C@@H](C)C(=O)N[C@@H](CCCNC(=N)N)C(=O)N[C@@H](CC(=O)O)C(=O)N[C@@H](Cc1ccccc1)C(=O)N[C@H](C(=O)N[C@@H](CCC(=O)O)C(=O)N[C@@H](Cc1c[nH]c2ccccc12)C(=O)N[C@@H](CC(C)C)C(=O)N[C@H](C(=O)N[C@@H](CCC(N)=O)C(=O)N[C@H](C(=O)N[C@@H](CCCCN)C(=O)N[C@H](C(=O)N[C@H](C(=O)O)[C@@H](C)O)[C@@H](C)CC)[C@@H](C)O)[C@@H](C)CC)[C@@H](C)CC)[C@@H](C)CC)[C@@H](C)O)[C@@H](C)CC)[C@@H](C)O
B5: Compound no. 10 (peptide)
peptide: H[Aib]DGTFK([γGlu-Palmitoyl])SDYSTILDNLAARDFINWLIQTKITK-OH
modifications: N-terminus assumed
SMILES: CCCCCCCCCCCCCCCC(=O)N[C@@H](CCC(=O)NCCCC[C@H](NC(=O)[C@H](Cc1ccccc1)NC(=O)[C@@H](NC(=O)CNC(=O)[C@H](CC(=O)O)NC(=O)C(C)(C)NC(=O)[C@@H](N)Cc1c[nH]cn1)[C@@H](C)O)C(=O)N[C@@H](CO)C(=O)N[C@@H](CC(=O)O)C(=O)N[C@@H](Cc1ccc(O)cc1)C(=O)N[C@@H](CO)C(=O)N[C@H](C(=O)N[C@H](C(=O)N[C@@H](CC(C)C)C(=O)N[C@@H](CC(=O)O)C(=O)N[C@@H](CC(N)=O)C(=O)N[C@@H](CC(C)C)C(=O)N[C@@H](C)C(=O)N[C@@H](C)C(=O)N[C@@H](CCCNC(=N)N)C(=O)N[C@@H](CC(=O)O)C(=O)N[C@@H](Cc1ccccc1)C(=O)N[C@H](C(=O)N[C@@H](CC(N)=O)C(=O)N[C@@H](Cc1c[nH]c2ccccc12)C(=O)N[C@@H](CC(C)C)C(=O)N[C@H](C(=O)N[C@@H](CCC(N)=O)C(=O)N[C@H](C(=O)N[C@@H](CCCCN)C(=O)N[C@H](C(=O)N[C@H](C(=O)N[C@@H](CCCCN)C(=O)O)[C@@H](C)O)[C@@H](C)CC)[C@@H](C)O)[C@@H](C)CC)[C@@H](C)CC)[C@@H](C)CC)[C@@H](C)O)C(=O)O
B6: Compound no. 7 (peptide)
peptide: Palmitoyl-H[Aib]DGTFISDYSTILDNLAARDFIEWLIQTKITK-OH
SMILES: CCCCCCCCCCCCCCCC(=O)N[C@@H](Cc1c[nH]cn1)C(=O)NC(C)(C)C(=O)N[C@@H](CC(=O)O)C(=O)NCC(=O)N[C@H](C(=O)N[C@@H](Cc1ccccc1)C(=O)N[C@H](C(=O)N[C@@H](CO)C(=O)N[C@@H](CC(=O)O)C(=O)N[C@@H](Cc1ccc(O)cc1)C(=O)N[C@@H](CO)C(=O)N[C@H](C(=O)N[C@H](C(=O)N[C@@H](CC(C)C)C(=O)N[C@@H](CC(=O)O)C(=O)N[C@@H](CC(N)=O)C(=O)N[C@@H](CC(C)C)C(=O)N[C@@H](C)C(=O)N[C@@H](C)C(=O)N[C@@H](CCCNC(=N)N)C(=O)N[C@@H](CC(=O)O)C(=O)N[C@@H](Cc1ccccc1)C(=O)N[C@H](C(=O)N[C@@H](CCC(=O)O)C(=O)N[C@@H](Cc1c[nH]c2ccccc12)C(=O)N[C@@H](CC(C)C)C(=O)N[C@H](C(=O)N[C@@H](CCC(N)=O)C(=O)N[C@H](C(=O)N[C@@H](CCCCN)C(=O)N[C@H](C(=O)N[C@H](C(=O)N[C@@H](CCCCN)C(=O)O)[C@@H](C)O)[C@@H](C)CC)[C@@H](C)O)[C@@H](C)CC)[C@@H](C)CC)[C@@H](C)CC)[C@@H](C)O)[C@@H](C)CC)[C@@H](C)O

target: human GLP-1R (GLP-1 receptor) (human, UniProt P43220 24-463); assay: cell-based or functional assay

Row | cAMP assay: Efficacy GLP-1R | cAMP assay: EC50 (nM) GLP-1R | cAMP assay: logEC50 GLP-1R | Binder
1 | 11% | – | – | B1
2 | 34% | 39.8 nM | 7.4 | B2
3 | 6% | – | – | B3
4 | 19% | 10 nM | 8 | B4
5 | 10% | 100 nM | 7 | B5
6 | 13% | 39.8 nM | 7.4 | B6
